These results are taken from patent US20230272035A1 (VYCELLIX, published 2023).

The test has as its target T1, CD45 (receptor-type tyrosine-protein phosphatase C, PTPRC) (Homo sapiens, UniProt P08575 26-1306).
T1 construct: In the lysis assays CD45 is the endogenous protein on human PBMCs or NK92 effector cells; also called all isoforms of CD45
T1 sequence: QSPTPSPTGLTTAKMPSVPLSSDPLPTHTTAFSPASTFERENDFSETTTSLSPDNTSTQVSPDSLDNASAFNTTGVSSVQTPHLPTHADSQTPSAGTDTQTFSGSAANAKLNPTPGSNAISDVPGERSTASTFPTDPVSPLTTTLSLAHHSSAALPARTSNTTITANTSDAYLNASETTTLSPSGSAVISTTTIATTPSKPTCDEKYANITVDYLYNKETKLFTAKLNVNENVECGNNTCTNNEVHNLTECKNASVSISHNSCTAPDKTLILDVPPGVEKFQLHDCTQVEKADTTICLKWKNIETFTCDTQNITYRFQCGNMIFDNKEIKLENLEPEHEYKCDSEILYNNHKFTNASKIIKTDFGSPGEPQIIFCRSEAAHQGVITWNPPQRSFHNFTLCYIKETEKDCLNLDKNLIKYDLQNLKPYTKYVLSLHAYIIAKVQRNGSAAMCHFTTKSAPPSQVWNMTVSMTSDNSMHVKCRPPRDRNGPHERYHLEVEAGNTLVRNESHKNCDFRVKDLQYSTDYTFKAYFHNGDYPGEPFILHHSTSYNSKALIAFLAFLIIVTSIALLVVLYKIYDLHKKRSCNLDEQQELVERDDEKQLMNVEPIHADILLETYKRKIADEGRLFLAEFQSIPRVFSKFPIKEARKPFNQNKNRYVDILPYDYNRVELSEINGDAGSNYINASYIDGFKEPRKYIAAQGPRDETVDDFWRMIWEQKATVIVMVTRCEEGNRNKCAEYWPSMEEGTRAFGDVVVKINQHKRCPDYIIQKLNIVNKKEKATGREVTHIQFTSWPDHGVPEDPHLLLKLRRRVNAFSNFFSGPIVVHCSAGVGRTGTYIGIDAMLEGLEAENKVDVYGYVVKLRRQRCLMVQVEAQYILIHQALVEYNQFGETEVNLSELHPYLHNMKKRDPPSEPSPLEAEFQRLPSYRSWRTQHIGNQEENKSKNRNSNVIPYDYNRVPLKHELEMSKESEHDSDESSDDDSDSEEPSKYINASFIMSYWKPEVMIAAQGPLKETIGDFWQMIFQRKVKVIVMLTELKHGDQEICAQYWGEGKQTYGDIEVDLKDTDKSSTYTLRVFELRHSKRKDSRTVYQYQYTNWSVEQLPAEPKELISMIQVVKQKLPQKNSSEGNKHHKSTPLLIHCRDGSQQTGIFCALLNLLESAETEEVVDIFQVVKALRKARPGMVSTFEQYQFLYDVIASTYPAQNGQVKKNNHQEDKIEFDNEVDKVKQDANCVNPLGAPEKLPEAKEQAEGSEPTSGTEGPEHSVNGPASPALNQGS
Put plainly: not described; same paragraph: immunoprecipitation studies reveal a physical interaction.

B1: a-CD45-sc (membrane-bound anti-CD45 single chain antibody with CD8a/CD28 stalk and CD34 transmembrane region) (scFv)
scFv: QVQLVESGGGLVQPGGSLKLSCAASGFDFSRYWMSWVRQAPGKGLEWIGEINPTSSTINFTPSLKDKVFISRDNAKNTLYLQMSKVRSEDTALYYCARGNYYRYGDAMDYWGQGTSVTVSKISGGGGSGGGGSGGGGSGGGGSGGGGSSDIVLTQSPASLAVSLGQRATISCRASKSVSTSGYSYLHWYQQKPGQPPKLLIYLASNLESGVPARFSGSGSGTDFTLNIHPVEEEDAATYYCQHSRELPFTFGSGTKLEIKSSGSGSPTTTPAPRPPTPAPTIASQPLSLRPEACRPAAGGAVHTRGLDFAPRKIEVMYPPPYLDNEKSNGTIIHVKGKHLCPSPLFPGPSKPTLIALVTSGALLAVLGITGYFL
notes: The molecule was expressed on the surface of K562 target cells; also called anti-CD45-sc; ai-CD45-sc
Consider B1, for which the binding result was “binds”.

B2: HCMV (Merlin strain; HHV5) protein UL11 (other)
chain: CIPVVGKIGTNVTLNAVDVLPPRDQVRWSYGPGGQGYMLCIFTGTSTTTFNNTRFNFSCLSNYSLLLINVTTQYSTTYRTMTSLDHWLHQRHNHGSRWTLDTCYNLTVNENGTFPTTTTKKPTTTTRTTTTTTQRTTTTRTTTTAKKTTISTTHHKHPSPKKSTTPNSHVEHHVGFEATAAETPLQPSPQHQHLATHALWVLAVVIVIIIIIIFYFRIPQKLWLLWQHDKHGIVLIPQTDL
notes: also called ULll
As to B2, the binding result is recorded as “binds”.
